Like-named read-outs stand apart in the source and are kept apart here.
Key:
[1] = molecular target: T1, Mouse GFRAL (mGFRAL) on HEK293 reporter cells with mouse RET (mouse, UniProt Q6SJE0 20-393); assay: cell-based or functional assay
T1 sequence (looked up): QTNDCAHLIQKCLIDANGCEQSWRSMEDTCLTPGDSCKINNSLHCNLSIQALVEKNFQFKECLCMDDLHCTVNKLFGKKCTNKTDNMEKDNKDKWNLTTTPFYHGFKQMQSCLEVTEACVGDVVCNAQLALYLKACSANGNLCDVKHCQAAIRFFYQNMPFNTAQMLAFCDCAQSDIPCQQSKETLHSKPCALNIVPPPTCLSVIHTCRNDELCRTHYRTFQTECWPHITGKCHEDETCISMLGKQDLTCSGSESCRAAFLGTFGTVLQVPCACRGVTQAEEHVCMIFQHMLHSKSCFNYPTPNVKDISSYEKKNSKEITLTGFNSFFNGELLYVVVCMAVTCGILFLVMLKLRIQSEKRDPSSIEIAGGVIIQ

[2] = molecular target: T2, Human GFRAL (hGFRAL) on HEK293 reporter cells with human RET (human, UniProt Q6UXV0 19-394); assay: cell-based or functional assay
T2 sequence (looked up): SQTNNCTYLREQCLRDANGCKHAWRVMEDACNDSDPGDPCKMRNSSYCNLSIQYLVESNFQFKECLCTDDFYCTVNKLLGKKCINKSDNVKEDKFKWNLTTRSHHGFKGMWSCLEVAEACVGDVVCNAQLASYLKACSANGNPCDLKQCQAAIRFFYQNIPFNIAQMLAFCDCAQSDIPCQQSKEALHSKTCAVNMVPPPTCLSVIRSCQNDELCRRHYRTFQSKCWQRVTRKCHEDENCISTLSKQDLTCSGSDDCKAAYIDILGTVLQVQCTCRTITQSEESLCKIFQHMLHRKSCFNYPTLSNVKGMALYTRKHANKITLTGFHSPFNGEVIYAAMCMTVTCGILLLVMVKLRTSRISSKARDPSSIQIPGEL

[3] = molecular target: T1, Mouse GFRAL (mGFRAL) on HEK293 reporter …; assay: cell-based or functional assay; remark: listed apart in the source
[4] = molecular target: T2, Human GFRAL (hGFRAL) on HEK293 reporter …; assay: cell-based or functional assay; remark: listed apart in the source
[5] = molecular target: Cynomolgus monkey GFRAL-His protein (cynomolgus monkey); assay: ELISA, antigen coated on plate, purified antibody titrated, HRP anti-mouse IgG detection
Experimental: (§1) The ELISA assay had the following protocols. Human GFRAL-His protein, cynomolgus monkey GFRAL-His protein, or mouse GFRAL-Fc protein were coated on 96-well plates, and after blocking the wells with PBS/1% BSA solution, the hybridoma supernatant or purified antibodies were added to the reaction wells. After incubation for 1 hour at room temperature, HRP-labeled anti-mouse IgG (Fab region) antibody was added to the reaction wells to incubate for an additional hour at room temperature. After the substrate and stop solution were added successively, the OD₄₅₀ values were read. The OD₄₅₀ values were used to verify and assess the binding ability of the antibodies to the GFRAL proteins.

Human GFRAL-His protein = molecular target: T3, Human GFRAL-His protein (human, UniProt Q6UXV0 19-351); assay: as above
T3 construct: also called human GFRAL-His fusion protein; not shown: His tag
T3 sequence (looked up): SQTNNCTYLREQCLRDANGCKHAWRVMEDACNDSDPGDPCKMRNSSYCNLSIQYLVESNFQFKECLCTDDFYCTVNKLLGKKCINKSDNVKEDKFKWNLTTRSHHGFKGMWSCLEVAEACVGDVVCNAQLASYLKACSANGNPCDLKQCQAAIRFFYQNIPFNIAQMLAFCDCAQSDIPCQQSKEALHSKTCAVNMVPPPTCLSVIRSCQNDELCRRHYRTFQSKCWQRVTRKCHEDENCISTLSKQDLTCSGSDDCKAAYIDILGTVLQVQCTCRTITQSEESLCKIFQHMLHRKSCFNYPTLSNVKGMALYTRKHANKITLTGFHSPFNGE
Experimental: as §1

| Binder | IC50 (nM), luciferase reporter gene assay, Mouse GFRAL/mouse RET [1] | IC50 (nM), luciferase reporter gene assay, Human GFRAL/human RET [2] | IC50 (nM), luciferase reporter gene assay, Mouse GFRAL/mouse RET [3] | IC50 (nM), luciferase reporter gene assay, Human GFRAL/human RET [4] | EC50 [5] | EC50 (Human GFRAL-His protein) |
| --- | --- | --- | --- | --- | --- | --- |
| 2D4H6aL6b (antibody, V domains shown) VH: EVQLVESGGGLVKPGGSLRLSCAASGFTFSSFVMSWVRQAPGKGLEWVASITSGGTTFYPESVRGRFTISRDNAKNTLYLQMSSLRAEDTAVYYCARGPPQFSSLSMDYWGQGTTVTVSS VL: DIQMTQSPSSLSASVGDRVTITCKASQNVGTAVSWFQQKPGKAPKLLIYSASNRYTGVPSRFSGSGSGTDFTLTISSLQPEDFATYYCQQYSSLFTFGGGTKLEIK | 1.4 nM | 24.4 nM |  |  |  |  |
| 2D4H6cL6c (antibody, V domains shown) VH: EVQLVESGGGLVKPGGSLRLSCAASGFTFSSFVMSWVRQAPGKGLEWVASITSGGTTFYPDSVKGRFTISRDNARNILYLQMSSLRAEDTAVYYCARGPPQFSSLSMDYWGQGTTVTVSS VL: DIQMTQSPSSLSASVGDRITITCKASQNVGTAVSWFQQKPGKAPKLLIYSASNRYTGVPDRFSGSGSGTDFTLTISSLQPEDFATYYCQQYSSLFTFGGGTKLEIK | 1.3 nM | 22.5 nM |  |  |  |  |
| 90E1 (antibody, V domains shown) VH: EVQLQQSGPELVKPGASVKMSCKASGYTFTSYVIHWVKQEPGQGLEWIGYINPYNDDINYNEKFKGKATLTSDKSSSTAYMEFSSLTSEDSAVYYCARYDYDWYFDVWGAGTAVTVSS VL: not shown |  |  | 75.5 nM | 81.4 nM |  |  |
| 26D7H5eL5c (antibody, V domains shown) VH: QVQLVQSGSELKKPGASVKVSCKVSGYTFTDYGMNWVRQAPGQGLEWVGWINTYTGEPTYADDFKDRFVFSLDTSVSTAYLQISSLKAEDTAVYYCARRYGYDAGIDAWGQGTTVTVSS VL: DIVLTQSPASLAVSPGQRATITCRASESVDSYGNNLMHWYQQKPGQPPKLLIYLASYLESGVPARFSGSGSGTDFTLTINPVEANDTANYYCQQNNESPWTFGGGTKLEIK | 0.7 nM | 8.3 nM |  |  |  |  |
| 26D7H5fL5c (antibody, V domains shown) VH: QIQLVQSGSELKKPGASVKISCKVSGYTFTDYGMNWVRQAPGQGLEWVGWINTYTGEPTYADDFKDRFVFSLDASVSTAYLQISSLKAEDTAVYYCARRYGYDAGIDAWGQGTTVTVSS VL: DIVLTQSPASLAVSPGQRATITCRASESVDSYGNNLMHWYQQKPGQPPKLLIYLASYLESGVPARFSGSGSGTDFTLTINPVEANDTANYYCQQNNESPWTFGGGTKLEIK | 0.4 nM | 8.9 nM |  |  |  |  |
| 26D7-mVH + mVL (antibody, V domains shown) VH: QIQLVQSGPELKKPGETVKISCKVSGYTFTDYGMNWVKQTPGKDLKWVGWINTYTGEPTYADDFKDRFAFSLEASASTAYLQINNLKNEDTATYFCARRYGYDAGIDCWGQGTTLTVSS VL: NIVLTQSPPSLAVSLGQRATISCRASESVDSYGNNLMHWYQQKPGQPPKLLIYLASYLESGVPARFSGSGSRTDFTLTIDPVEADDAATYYCQQNNEDPWTFGGGTKLEIK | 0.7 nM | 8.7 nM |  |  |  |  |
| 26D7H1aL2a (antibody, V domains shown) VH: QVQLVQSGAEVKKPGASVKVSCKASGYTFTDYGMNWVRQAPGQGLEWMGWINTYTGEPTYADDFKDRVTMTTDTSTSTAYMELRSLRSDDTAVYYCARRYGYDAGIDAWGQGTLVTVSS VL: EIVLTQSPGTLSLSPGERATLSCRASESVDSYGNNLMHWYQQKPGQAPRLLIYLASYLESGVPDRFSGSGSGTDFTLTISRLEPEDFATYYCQQNNESPWTFGQGTKVEIK | 7.7 nM | 2.6 nM |  |  |  |  |
| 26D7H2dL2a (antibody, V domains shown) VH: QVQLVQSGAEVKKPGASVKISCKASGYTFTDYGMNWVRQAPGQGLKWMGWINTYTGEPTYADDFKDRVTFTLDASTSTAYMELRSLRSDDTAVYYCARRYGYDAGIDAWGQGTLVTVSS VL: EIVLTQSPGTLSLSPGERATLSCRASESVDSYGNNLMHWYQQKPGQAPRLLIYLASYLESGVPDRFSGSGSGTDFTLTISRLEPEDFATYYCQQNNESPWTFGQGTKVEIK | 3 nM | 6.5 nM |  |  |  |  |
| 26D7H4aL4a (antibody, V domains shown) VH: QIQLVQSGAEVKKPGASVKISCKVSGYTFTDYGMNWVRQTPGQGLKWVGWINTYTGEPTYADDFKDRFTFTLDASTSTAYLEIRSLRSDDTAVYFCARRYGYDAGIDAWGQGTLLTVSS VL: EIVLTQSPGTLSVSPGERATISCRASESVDSYGNNLMHWYQQKPGQAPRLLIYLASYLESGVPARFSGSGSRTDFTLTISRVEPEDFATYYCQQNNESPWTFGQGTKLEIK | 0.1 nM | 5.7 nM |  |  |  |  |
| 26D7H2aL2a (antibody, V domains shown) VH: QVQLVQSGAEVKKPGASVKVSCKVSGYTFTDYGMNWVRQAPGQGLEWVGWINTYTGEPTYADDFKDRFTFTLDTSTSTAYMELRSLRSDDTAVYFCARRYGYDAGIDAWGQGTLVTVSS VL: EIVLTQSPGTLSLSPGERATLSCRASESVDSYGNNLMHWYQQKPGQAPRLLIYLASYLESGVPDRFSGSGSGTDFTLTISRLEPEDFATYYCQQNNESPWTFGQGTKVEIK | 1.6 nM | 7.6 nM |  |  |  |  |
| 2D4-mVH + mVL (antibody, V domains shown) VH: EVNLVESGGGLVKPGGPLKLSCAASGFTFSSFVMSWVRQTPEKRLEWVASITSGGTTFYPDSVKGRFTISRDNARNILYLQMSNLRSGDTAMYYCARGPPQFSSLSMDYWGQGTSVTVSS VL: DIVMTQSQKFMSTSVGDRITITCKASQNVGTAVSWFQQKPGQVPKLLIYSASNRYTGVPDRFTGSGSGTEFTLTISNIQSEDLADYFCQQYSSLFTFGSGTKLEIK | 1.4 nM | 23.8 nM |  |  |  |  |
| 33B12 (antibody, V domains shown, Murine hybridoma antibody, purified) VH: QVQLQQPGTELVKPGASVKLSCKASGYTFTRNWMHWLKQRPGQGLEWIGEIDPSDSYTHYNQKFKGKATLTVEMSSSTAYMQLRSLTSEDSAVYYCARVGNYDNGTDRLYAMDYWGQGTSVTVSS VL: DIVLTQSPASLAVSLGQRATISCRASESVDNFGNTFLHWFRQKPGQPPKLLIYRASNLESGIPARFSGSGSRTDFTLTINPVEADDVATYYCQQNNEDPWTFGGGTKLEIK |  |  | > 694 nM | 7.04 nM | 0.08 nM | 0.06 nM |
| 82G8 (antibody, V domains shown, Murine hybridoma antibody, purified) VH: QVQLKESGPGLVAPSQSLSITCTVSGFSLTGHGVNWVRQPPGKGLEWLGMIWGDGYTDYNSALKSRLSISKDNSKSQVFLKMNSLQTDDTATYYCARDTYGRTYDYAMDYWGQGTSVTVSS VL: DIVLTQSPASLAVSLGQRAAISCRASESVDNYGNSFMHWYQQKPGQPPKLLIYRASNLESGIPARFSGSGSRTDFTLTINPVEADDVATYYCQQSNEDPRTFGGGTKLEIK |  |  | > 694 nM | 5.67 nM | 0.04 nM | 0.03 nM |
| 36D1 (antibody, V domains shown, Murine hybridoma antibody, purified) VH: QVQLQQPGTEFVKPGASVKLSCKASGYTFTRNWMHWLKQRPGQGLEWIGEIDPSDSYTHYNQKFKGKATLTVDKSSSTAYMQLSSLTSEDSAVYYCARVGNYDNGKDRLYAMDYWGQGTSVTVSS VL: DIVLTQSPASLAVSLGQRATISCRASESVDNFGNTFLHWFRQKPGQPPKLLIYRASNLESGIPARFSGSGSRTDFTLTINPVEADDVATYYCQQNNEDPWTFGGGTKLEIK |  |  | > 694 nM | 6.89 nM | 0.07 nM | 0.18 nM |

— patent US20240368286A1 (SHANGHAI JMT BIO TECHNOLOGY, published 2024)
